In patent publication US20250361320A1 (Bristol-Myers Squibb, published 2025):

T1: human CEACAM5 on cells (MKN45, BxPC-3, Ls174T, HCT116-huCEACAM5) (human, UniProt P06731 35-685)
T1 sequence: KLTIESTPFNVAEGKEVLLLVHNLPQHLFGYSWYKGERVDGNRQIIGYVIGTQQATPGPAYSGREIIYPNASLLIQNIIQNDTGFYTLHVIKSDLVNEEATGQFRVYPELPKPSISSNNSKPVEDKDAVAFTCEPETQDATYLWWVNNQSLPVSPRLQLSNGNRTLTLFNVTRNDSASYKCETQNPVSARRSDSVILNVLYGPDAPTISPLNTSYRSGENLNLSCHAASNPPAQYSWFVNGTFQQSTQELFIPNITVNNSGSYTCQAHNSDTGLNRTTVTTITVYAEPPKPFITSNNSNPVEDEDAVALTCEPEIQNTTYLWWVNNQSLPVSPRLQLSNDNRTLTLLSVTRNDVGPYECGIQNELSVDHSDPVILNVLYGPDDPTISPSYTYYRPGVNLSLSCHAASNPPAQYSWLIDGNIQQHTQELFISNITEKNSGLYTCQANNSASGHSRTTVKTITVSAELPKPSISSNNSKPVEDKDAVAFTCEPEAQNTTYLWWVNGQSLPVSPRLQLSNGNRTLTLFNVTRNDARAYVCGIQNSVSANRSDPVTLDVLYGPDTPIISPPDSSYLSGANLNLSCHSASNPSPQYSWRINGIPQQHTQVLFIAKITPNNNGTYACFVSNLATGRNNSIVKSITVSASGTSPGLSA

T2: cynomolgus CEACAM5 on cells (HCT116-cyCEACAM5) (cynomolgus (Macaca fascicularis))
T2 construct: also called cynoCEACAM-5
T2 chain: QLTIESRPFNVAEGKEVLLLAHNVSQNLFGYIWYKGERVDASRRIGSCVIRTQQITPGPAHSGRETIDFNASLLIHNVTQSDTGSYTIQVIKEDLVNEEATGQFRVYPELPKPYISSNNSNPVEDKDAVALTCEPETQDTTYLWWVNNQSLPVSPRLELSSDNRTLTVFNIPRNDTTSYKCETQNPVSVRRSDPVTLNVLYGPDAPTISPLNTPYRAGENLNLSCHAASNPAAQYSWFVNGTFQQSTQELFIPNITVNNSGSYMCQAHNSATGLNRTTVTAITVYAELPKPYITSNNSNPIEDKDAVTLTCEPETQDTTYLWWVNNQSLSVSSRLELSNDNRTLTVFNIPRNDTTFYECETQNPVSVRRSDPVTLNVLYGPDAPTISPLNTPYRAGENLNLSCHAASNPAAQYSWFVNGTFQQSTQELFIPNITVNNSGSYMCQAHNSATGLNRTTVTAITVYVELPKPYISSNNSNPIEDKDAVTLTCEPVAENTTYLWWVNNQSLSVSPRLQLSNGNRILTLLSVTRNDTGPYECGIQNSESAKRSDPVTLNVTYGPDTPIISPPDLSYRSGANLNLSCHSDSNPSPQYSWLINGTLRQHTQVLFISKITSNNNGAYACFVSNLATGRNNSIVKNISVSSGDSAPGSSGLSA

B1: MBP003 (hIgG1 progeny of MBN001) (antibody, V domains shown)
VH: QVQLVESGGGVVQPGRSLRLSCAASGITFSSHGMHWVRQAPGKGLEWVTFISYDGSYKSYVDSVKGRFTISRDNSKNTLYLQMNSLRAEDTAVYYCATGLTGTGAFDIWGQGTMVTVSS
VL: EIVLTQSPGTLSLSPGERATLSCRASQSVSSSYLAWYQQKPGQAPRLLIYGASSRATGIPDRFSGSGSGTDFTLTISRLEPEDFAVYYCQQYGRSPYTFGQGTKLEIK
B2: MBP010 (hIgG1.3f progeny of MBN001) (antibody, V domains shown)
VH: QVQLVESGGGVVQPGRSLRLSCAASGITFSSHGMHWVRQAPGKGLEWVTFISYDSSYKSYVDSVKGRFTISRDNSKNTLYLQMNSLRAEDTAVYYCATGLTGTGAFDIWGQGTMVTVSS
VL: EIVLTQSPGTLSLSPGERATLSCRASQSVSSSYLAWYQQKPGQAPRLLIYGASSRATGIPDRFSGSGSGTDFTLTISRLEPEDFAVYYCQQNKRSPYTFGQGTKLEIK
B3: MBP006 (hIgG1.3f progeny of MBN001) (antibody, V domains shown)
VH: QVQLVESGGGVVQPGRSLRLSCAASGITFSSHGMHWVRQAPGKGLEWVTFISYDGSYISYVDSVKGRFTISRDNSKNTLYLQMNSLRAEDTAVYYCATGLTGTGANDIWGQGTMVTVSS
VL: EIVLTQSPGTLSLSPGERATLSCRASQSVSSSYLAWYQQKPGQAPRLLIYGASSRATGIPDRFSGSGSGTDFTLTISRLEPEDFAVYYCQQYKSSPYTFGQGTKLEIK
B4: MBP009 (hIgG1.3f progeny of MBN001) (antibody, V domains shown)
VH: QVQLVESGGGVVQPGRSLRLSCAASGIYFSSHGMHWVRQAPGKGLEWVTFISYDGSYKSYVDSVKGRFTISRDNSKNTLYLQMNSLRAEDTAVYYCATGLTGTGAFDIWGQGTMVTVSS
VL: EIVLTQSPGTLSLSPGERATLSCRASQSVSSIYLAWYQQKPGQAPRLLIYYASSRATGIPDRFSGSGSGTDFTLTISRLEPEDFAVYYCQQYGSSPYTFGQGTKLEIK
B5: MBP008 (hIgG1.3f progeny of MBN001) (antibody, V domains shown)
VH: QVQLVESGGGVVQPGRSLRLSCAASGITFSSHGMHWVRQAPGKGLEWVTFISYDGSYKSYVDSVKGRFTISRDNSKNTLYLQMNSLRAEDTAVYYCATGLTGTNALDIWGQGTMVTVSS
VL: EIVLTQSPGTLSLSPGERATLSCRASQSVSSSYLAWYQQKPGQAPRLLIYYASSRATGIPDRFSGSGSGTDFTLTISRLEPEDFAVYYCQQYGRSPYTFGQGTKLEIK
B6: MBP002 (hIgG1 progeny of MBN001) (antibody, V domains shown)
VH: QVQLVESGGGVVQPGRSLRLSCAASGITFSSHGMHWVRQAPGKGLEWVTFISYDGSYKSYVDSVKGRFTISRDNSKNTLYLQMNSLRAEDTAVYYCATGLTGTNALDIWGQGTMVTVSS
VL: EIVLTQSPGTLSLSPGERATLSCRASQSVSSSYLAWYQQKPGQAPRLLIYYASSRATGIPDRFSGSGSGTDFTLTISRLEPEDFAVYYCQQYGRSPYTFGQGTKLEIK
B7: MBP011 (hIgG1.3f progeny of MBN001) (antibody, V domains shown)
VH: QVQLVESGGGVVQPGRSLRLSCAASGITFSSHGMHWVRQAPGKGLEWVTFISYDGSIKSYVDSVKGRFTISRDNSKNTLYLQMNSLRAEDTAVYYCATGLTGTGAFDIWGQGTMVTVSS
VL: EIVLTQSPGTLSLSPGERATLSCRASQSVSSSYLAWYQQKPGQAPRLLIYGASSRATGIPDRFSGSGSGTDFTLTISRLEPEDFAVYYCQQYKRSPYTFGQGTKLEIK
B8: MBP007 (hIgG1.3f progeny of MBN001) (antibody, V domains shown)
VH: QVQLVESGGGVVQPGRSLRLSCAASGIYFSSHGMHWVRQAPGKGLEWVTFISYDGSYKSYVDSVKGRFTISRDNSKNTLYLQMNSLRAEDTAVYYCATGLTGTGANDIWGQGTMVTVSS
VL: EIVLTQSPGTLSLSPGERATLSCRASQSVSSSYLAWYQQKPGQAPRLLIYGASSRATGIPDRFSGSGSGTDFTLTISRLEPEDFAVYYCQQNKPSPYTFGQGTKLEIK
B9: MBP004 (hIgG1.3f progeny of MBN001) (antibody, V domains shown)
VH: QVQLVESGGGVVQPGRSLRLSCAASGITFSSHGMHWVRQAPGKGLEWVTFISYDGSYKSYVDSVKGRFTISRDNSKNTLYLQMNSLRAEDTAVYYCATGLTGTGAFDIWGQGTMVTVSS
VL: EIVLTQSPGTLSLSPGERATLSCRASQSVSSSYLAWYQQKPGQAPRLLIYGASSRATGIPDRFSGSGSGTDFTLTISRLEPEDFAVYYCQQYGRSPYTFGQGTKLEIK
B10: MBP005 (hIgG1.3f progeny of MBN001) (antibody, V domains shown)
VH: QVQLVESGGGVVQPGRSLRLSCAASGIYFSSHGMHWVRQAPGKGLEWVTFISYDGSYKSYVDSVKGRFTISRDNSKNTLYLQMNSLRAEDTAVYYCATGLTGTGAFDIWGQGTMVTVSS
VL: not shown
B11: anti-CEACAM5 mAb MBN001 (antibody, V domains shown)
VH: QVQLVETGGGVVQPGRSLRLSCAASGITFSSHGMHWVRQSPGKGLEWVTFISYDGSYKSYVDSVKGRFAISRDNSKNTLYLQMNSLRPEDTAVYYCATGLTGTGAFDIWGQGTMVTVSS
VL: not shown
notes: also called MBN001 parent; bin 1 lead

Molecular target: T1, human CEACAM5 on cells (MKN45, BxPC-3, …)
Assay: cell-based or functional assay

Binder	Ls174T 5-day cytotoxicity (AUC), antibody with cytotoxic payload	MKN45 5-day cytotoxicity (AUC), antibody with cytotoxic payload
B1	18500	24400
B2	910	1360
B3	902	2440
B4	1040	2200
B5	1140	2200
B6	18900	24100
B7	939	1770
B8	834	2070
B9	865	2380
B10	964	2350

Molecular target: T2, cynomolgus CEACAM5 on cells …
Assay: cell binding, HCT-116 cyCEACAM5 cells

Binder	EC50 [nM]
B11	82.2
